According to patent US20210246166A1 (Bayer, published 2021):
Numbered stars: 1 amine (or outer) side, 2 acyl side, 3 side chain; on linkers, the order of the positions; unused ones are H or OH. Bridge positions count the residues as written; N and C are the ends. Square brackets hold non-standard residues; d marks the D form. Primed or numbered codes have the meaning given here. Ends that are not written are not given here. * marks the point of attachment. TTDS = 1,13-diamino-4,7,10-trioxatridecan-succinamic acid, O=C(CCC(=O)[*:2])NCCCOCCOCCOCCCN[*:1]; Tranexamic″ = tranexamic acid, NC[C@H]1CC[C@@H](C(=O)*)CC1; NH(CH2CH2O)5CH2CO = O=C(COCCOCCOCCOCCOCCN[*:1])[*:2]; Pro(4-spirocPr) = O=C(O)[C@@H]1CC2(CC2)CN1; Oic = O=C(O)[C@@H]1C[C@@H]2CCCC[C@@H]2N1; PEG6 = NCCOCCOCCOCCOCCOCCOCCC(=O)O; tBuAla = CC(C)(C)C[C@H](N)C(=O)O; (3-Me)H = L-3-methylhistidine; PEG4 = NCCOCCOCCOCCOCCC(=O)O; Pen = CC(C)(S)[C@H](N)C(=O)O; Tranexamic = tranexamic acid; Sar = CNCC(=O)O

T1: recombinant human MASP1 active protease (amino acids 297-699, C-terminal His Tag) (human, UniProt P48740 297-699)
T1 sequence: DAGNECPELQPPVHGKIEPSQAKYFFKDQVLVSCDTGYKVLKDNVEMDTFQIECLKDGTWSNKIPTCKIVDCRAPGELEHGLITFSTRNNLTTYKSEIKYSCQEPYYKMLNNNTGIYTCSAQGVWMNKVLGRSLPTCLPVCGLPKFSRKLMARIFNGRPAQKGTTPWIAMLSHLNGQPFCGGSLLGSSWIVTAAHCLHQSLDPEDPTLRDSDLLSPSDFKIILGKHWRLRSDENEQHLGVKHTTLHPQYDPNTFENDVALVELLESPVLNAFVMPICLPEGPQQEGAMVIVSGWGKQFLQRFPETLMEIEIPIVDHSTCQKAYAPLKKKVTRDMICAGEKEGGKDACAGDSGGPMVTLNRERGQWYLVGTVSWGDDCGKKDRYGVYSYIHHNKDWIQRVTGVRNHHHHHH

B1: Example 424: (Tranexamic)-IC+SRS-((tBu)A)-PPI-(Pen)+IP-(PEG5-CH2CO2H (18 atoms))-NH2 (peptide)
peptide: {Tranexamic″}-ICSRS[tBuAla]PPI[Pen]IP-{NH(CH2CH2O)5CH2CO-NH2}
modifications: disulfide 2-10
SMILES: CC[C@H](C)[C@@H]1NC(=O)[C@@H]2CCCN2C(=O)[C@@H]2CCCN2C(=O)[C@H](CC(C)(C)C)NC(=O)[C@H](CO)NC(=O)[C@H](CCCNC(=N)N)NC(=O)[C@H](CO)NC(=O)[C@@H](NC(=O)[C@@H](NC(=O)[C@H]2CC[C@@H](CN)CC2)[C@@H](C)CC)CSSC(C)(C)[C@@H](C(=O)N[C@H](C(=O)N2CCC[C@H]2C(=O)NCCOCCOCCOCCOCCOCC(N)=O)[C@@H](C)CC)NC1=O
B2: Example 425: (Tranexamic)-IC+SRS-((tBu)A)-PPI-(Pen)+IP-(PEG5(22 atoms))-NH2 (peptide)
peptide: {Tranexamic″}-ICSRS[tBuAla]PPI[Pen]IP-{PEG6-NH2}
modifications: disulfide 2-10
SMILES: CC[C@H](C)[C@@H]1NC(=O)[C@@H]2CCCN2C(=O)[C@@H]2CCCN2C(=O)[C@H](CC(C)(C)C)NC(=O)[C@H](CO)NC(=O)[C@H](CCCNC(=N)N)NC(=O)[C@H](CO)NC(=O)[C@@H](NC(=O)[C@@H](NC(=O)[C@H]2CC[C@@H](CN)CC2)[C@@H](C)CC)CSSC(C)(C)[C@@H](C(=O)N[C@H](C(=O)N2CCC[C@H]2C(=O)NCCOCCOCCOCCOCCOCCOCCC(N)=O)[C@@H](C)CC)NC1=O
B3: Example 433: ((N-Me)G)-IC+SRS-((tBu)A)-PPI-(Pen)+IPD-((N-Me)G)-((N-Me)G)-((N-Me)G)-NH2 (peptide)
peptide: [Sar]ICSRS[tBuAla]PPI[Pen]IPD[Sar][Sar][Sar]-NH2
modifications: disulfide 3-11; N-terminus assumed
SMILES: CC[C@H](C)[C@H](NC(=O)CNC)C(=O)N[C@H]1CSSC(C)(C)[C@@H](C(=O)N[C@H](C(=O)N2CCC[C@H]2C(=O)N[C@@H](CC(=O)O)C(=O)N(C)CC(=O)N(C)CC(=O)N(C)CC(N)=O)[C@@H](C)CC)NC(=O)[C@H]([C@@H](C)CC)NC(=O)[C@@H]2CCCN2C(=O)[C@@H]2CCCN2C(=O)[C@H](CC(C)(C)C)NC(=O)[C@H](CO)NC(=O)[C@H](CCCNC(=N)N)NC(=O)[C@H](CO)NC1=O
B4: Example 423: (Tranexamic)-IC+SRS-((tBu)A)-PPI-(Pen)+IP-(PEG3(16 atoms))-NH2 (peptide)
peptide: {Tranexamic″}-ICSRS[tBuAla]PPI[Pen]IP-{PEG4-NH2}
modifications: disulfide 2-10
SMILES: CC[C@H](C)[C@@H]1NC(=O)[C@@H]2CCCN2C(=O)[C@@H]2CCCN2C(=O)[C@H](CC(C)(C)C)NC(=O)[C@H](CO)NC(=O)[C@H](CCCNC(=N)N)NC(=O)[C@H](CO)NC(=O)[C@@H](NC(=O)[C@@H](NC(=O)[C@H]2CC[C@@H](CN)CC2)[C@@H](C)CC)CSSC(C)(C)[C@@H](C(=O)N[C@H](C(=O)N2CCC[C@H]2C(=O)NCCOCCOCCOCCOCCC(N)=O)[C@@H](C)CC)NC1=O
B5: Example 439: ((N-Me)G)-IC+SRS-((tBu)A)-P-((6S)-5-Azaspiro[2.4]heptane-6-carboxylic acid)-I-(Pen)+IP-NH2 (peptide)
peptide: [Sar]ICSRS[tBuAla]P[Pro(4-spirocPr)]I[Pen]IP-NH2
modifications: disulfide 3-11; N-terminus assumed
SMILES: CC[C@H](C)[C@H](NC(=O)CNC)C(=O)N[C@H]1CSSC(C)(C)[C@@H](C(=O)N[C@H](C(=O)N2CCC[C@H]2C(N)=O)[C@@H](C)CC)NC(=O)[C@H]([C@@H](C)CC)NC(=O)[C@@H]2CC3(CC3)CN2C(=O)[C@@H]2CCCN2C(=O)[C@H](CC(C)(C)C)NC(=O)[C@H](CO)NC(=O)[C@H](CCCNC(=N)N)NC(=O)[C@H](CO)NC1=O

molecular target: T1, recombinant human MASP1 active protease …; experiment: cell-based or functional assay

Row | human MASP1 IC50 [nM] | Binder
1 | 6.6 | B1
2 | 2.8 | [(3-Me)H]ICSRSLP[Oic]I[Pen]IP-NH2 (disulfide 3-11) [Example 444: ((3-Me)H)-IC+SRSLP-(Oic)-I-(Pen)+IP-NH2]
3 | 2.2 | [Sar]ICSRSLP[Oic]I[Pen]IP[(2S)‑3‑(Triazol-1-yl)‑2‑(amino)propanoic acid]-NH2 (disulfide 3-11) [Example 437: ((N-Me)G)-IC+SRSLP-(Oic)-I-(Pen)+IP-((2S)-3-(Triazol-1-yl)-2-(amino)propanoic acid)-NH2]
4 | 7.7 | B2
5 | 1.7 | B3
6 | 5.7 | B4
7 | 3.2 | B5
8 | 2.3 | [Sar]ICSRSLP[Oic]I[Pen]IPP[(2S)‑3‑(Triazol-1-yl)‑2‑(amino)propanoic acid]-NH2 (disulfide 3-11)
9 | 6.9 | [Tranexamic]ICSRS[tBuAla]PPI[Pen]IP[TTDS]-NH2 (disulfide 3-11) [Example 429: (Tranexamic)-IC+SRS-((tBu)A)-PPI-(Pen)+IP-(TTDS)-NH2]
10 | 2.9 | [Sar]ICSRSLP[Oic]I[Pen]IP[5‑Azaspiro(2.4)heptane‑1‑carboxylic acid]-OH (disulfide 3-11) [Example 438: ((N-Me)G)-IC+SRSLP-(Oic)-I-(Pen)+IP-((5-Azaspiro[2.4]heptane-1-carboxylic acid)-OH]

molecular target: recombinant human MASP2 active protease (amino acids 297-686, C-terminal His Tag) (human, UniProt O00187 297-686); experiment: cell-based or functional assay
Sequence (O00187 other isoform, or with tags, fused parts or gaps limits assumed): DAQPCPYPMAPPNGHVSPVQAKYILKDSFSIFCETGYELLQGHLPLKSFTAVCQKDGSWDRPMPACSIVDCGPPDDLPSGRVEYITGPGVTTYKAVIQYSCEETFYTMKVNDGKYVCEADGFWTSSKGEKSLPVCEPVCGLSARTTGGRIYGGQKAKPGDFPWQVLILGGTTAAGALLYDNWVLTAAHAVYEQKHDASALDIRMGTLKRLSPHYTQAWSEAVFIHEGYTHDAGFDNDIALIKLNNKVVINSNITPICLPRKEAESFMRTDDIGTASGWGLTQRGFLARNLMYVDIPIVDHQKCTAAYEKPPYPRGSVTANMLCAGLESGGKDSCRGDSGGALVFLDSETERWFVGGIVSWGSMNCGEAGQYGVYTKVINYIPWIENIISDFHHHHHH

Row | human MASP2 IC50 [nM] | Binder
11 | 11 | B1
12 | 61 | [(3-Me)H]ICSRSLP[Oic]I[Pen]IP-NH2 (disulfide 3-11) [Example 444: ((3-Me)H)-IC+SRSLP-(Oic)-I-(Pen)+IP-NH2]
13 | 76 | [Sar]ICSRSLP[Oic]I[Pen]IP[(2S)‑3‑(Triazol-1-yl)‑2‑(amino)propanoic acid]-NH2 (disulfide 3-11) [Example 437: ((N-Me)G)-IC+SRSLP-(Oic)-I-(Pen)+IP-((2S)-3-(Triazol-1-yl)-2-(amino)propanoic acid)-NH2]
14 | 13 | B2
15 | 120 | B3
16 | 12 | B4
17 | 15 | B5
18 | 44 | [Sar]ICSRSLP[Oic]I[Pen]IPP[(2S)‑3‑(Triazol-1-yl)‑2‑(amino)propanoic acid]-NH2 (disulfide 3-11)
19 | 12 | [Tranexamic]ICSRS[tBuAla]PPI[Pen]IP[TTDS]-NH2 (disulfide 3-11) [Example 429: (Tranexamic)-IC+SRS-((tBu)A)-PPI-(Pen)+IP-(TTDS)-NH2]
20 | 83 | [Sar]ICSRSLP[Oic]I[Pen]IP[5‑Azaspiro(2.4)heptane‑1‑carboxylic acid]-OH (disulfide 3-11) [Example 438: ((N-Me)G)-IC+SRSLP-(Oic)-I-(Pen)+IP-((5-Azaspiro[2.4]heptane-1-carboxylic acid)-OH]
